Results on 2 substances are retold here after patent US10369187B2, “Peptide regulators of JNK family kinases” (Vanderbilt University, priority 2017, dated 2019).

“Also recorded” adds a separate entry of the source.

One experiment concerns the target T1, MKK4 (Homo sapiens, UniProt P45985).
T1 sequence (P45985 1-399): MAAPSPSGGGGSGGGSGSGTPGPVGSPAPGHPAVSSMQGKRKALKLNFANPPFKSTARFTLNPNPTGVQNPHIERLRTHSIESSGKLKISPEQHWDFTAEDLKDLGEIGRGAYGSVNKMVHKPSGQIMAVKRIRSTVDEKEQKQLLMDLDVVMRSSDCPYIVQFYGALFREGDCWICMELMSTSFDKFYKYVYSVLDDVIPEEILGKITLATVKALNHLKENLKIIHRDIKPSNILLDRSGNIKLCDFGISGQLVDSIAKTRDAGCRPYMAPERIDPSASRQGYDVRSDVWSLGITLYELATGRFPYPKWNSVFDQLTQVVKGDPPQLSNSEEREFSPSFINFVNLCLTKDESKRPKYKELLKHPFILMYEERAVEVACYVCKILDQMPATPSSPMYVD
Kind of experiment: MBP pull-down of purified MKK4. As to conditions: for binding of MKK4 in MBP pull-down: purified GST-MKK4, peptide as MBP-fusion immobilized on amylose. The format is binding. Here is the method: (§1) T1A was expressed in E. coli as an MBP-fusion and purified it on an amylose column^23. The ability of purified GST-MKK4 or GST-MKK7 (FIG. 1A) to bind MBP-T1A immobilized on an amylose column was tested in an in vitro pull-down assay, where MBP and MBP-arrestin-3 served as negative and positive controls, respectively (FIG. 1B). MBP-T1A, but not control MBP, effectively retained both kinases (FIG. 1B). […] Next, it was tested whether T1A binds the uppermost kinase in the cascade, ASK1. Because ASK1 is not available in purified form, HA-tagged ASK1 and YFP-tagged T1A (using YFP as a control) were co-expressed in COS7 cells, lysed the cells, and immunoprecipitated YFP constructs with anti-GFP antibody (FIG. 1C).
To make MBP-fusions containing arrestin-2/3 elements, the cDNAs encoding arrestin fragments were subcloned into pMal-p2T (generous gift from Dr. Keiji Tanaka, Tokyo Institute of Medical Science) between Eco RI and Xho I sites in frame with MBP, as described^23. MBP-Arr3 (full-length arrestin-3) was created by subcloning the corresponding cDNA into pMal-p2T between Eco RI and Not I sites^23. All MBP-arrestin-3 fusion proteins contained the same […] (SEQ ID NO:29) linker between MBP and arrestin-3 or its fragments. The MBP protein used as negative control was purified using empty pMal-p2T vector containing the same linker with 10 additional residues: […] (SEQ ID NO:30). MBP fusions were purified, as described^23. MBP pull-down was performed, as described^23. Briefly, Indicated MBP fusions (10-30 μg in 50 μL 20 mM Tris/150 mM NaCl) were immobilized on amylose resin (25 μL, 50% slurry, New England Biolabs) for 1 h at 4° C. with slight rotation. Purified, as described^40, MKK4/7 (10 μg in 50 μL 20 mM Tris/150 mM NaCl) were added to the immobilized MBP fusions and rotated gently for 2 h at 4° C. Samples were transferred to centrifuge filters (Durapore®-PVDF-0.65 μm), washed three times with 50 mM HEPES-Na, pH 7.3, 150 mM NaCl. The proteins were eluted by 100 μl of elution buffer (wash buffer containing 50 mM maltose) by gentle rotation for 5 min at 4° C. Eluates were analyzed by SDS-PAGE and Western blotting.

The target in another experiment is T2, MKK7 (Homo sapiens, UniProt O14733).
T2 sequence (O14733 1-419): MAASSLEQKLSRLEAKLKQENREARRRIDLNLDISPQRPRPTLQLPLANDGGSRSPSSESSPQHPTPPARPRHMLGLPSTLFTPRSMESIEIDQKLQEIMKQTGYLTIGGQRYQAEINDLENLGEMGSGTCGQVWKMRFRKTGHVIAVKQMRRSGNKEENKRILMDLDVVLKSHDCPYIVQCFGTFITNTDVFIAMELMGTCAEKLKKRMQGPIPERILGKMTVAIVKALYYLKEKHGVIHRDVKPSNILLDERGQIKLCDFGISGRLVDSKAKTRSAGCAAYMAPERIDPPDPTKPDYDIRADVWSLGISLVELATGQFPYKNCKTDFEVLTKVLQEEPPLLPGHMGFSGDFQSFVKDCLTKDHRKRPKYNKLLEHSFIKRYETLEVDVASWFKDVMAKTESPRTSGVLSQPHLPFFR
Kind of experiment: MBP pull-down of purified MKK7. As to conditions: purified GST-MKK7; peptide as MBP-fusion immobilized on amylose. It counts as binding. Here is the method: as §1
To make MBP-fusions containing arrestin-2/3 elements, the cDNAs encoding arrestin fragments were subcloned into pMal-p2T (generous gift from Dr. Keiji Tanaka, Tokyo Institute of Medical Science) between Eco RI and Xho I sites in frame with MBP, as described^23. MBP-Arr3 (full-length arrestin-3) was created by subcloning the corresponding cDNA into pMal-p2T between Eco RI and Not I sites^23. All MBP-arrestin-3 fusion proteins contained the same […] (SEQ ID NO:29) linker between MBP and arrestin-3 or its fragments. […] Eluates were analyzed by SDS-PAGE and Western blotting.

Regarding “MGDK-GTRVFKKASPNGKLTVYLGK (MGDKGTRVFKKASPNGKLTVYLGK; N-terminal MGDK; bovine) [B1A, homologous N-terminal peptide from arrestin-2, negative control]”, the “binding of MKK4 in MBP pull-down” value with MKK4 is “comparably bind MKK4”. For the same substance, the “binding of MKK7 in MBP pull-down” value in the experiment with MKK7 is reported as “less robust interaction”.

In the case of “MGEKPGTRVFKKSSPNCKLTVYLGK (bovine) [T1A, first 25 residues of arrestin-3]”, the “interaction with MKK4 compared with MKK7” value with MKK4 (MBP pull-down, purified proteins) is recorded as “stronger interaction with MKK4 than with MKK7”. Besides, in the experiment with MKK4, the “binding of MKK4 in MBP pull-down” value is “binds both MKKs; also recorded: comparably bind MKK4”. Further, the “binding of MKK7 in MBP pull-down” value with MKK7 is reported as “binds both MKKs”.
